# Data taken from US20220235118A1 (IMMUNOME, published 2022).
# B1: PR194_00232 (antibody, V domains shown)
# VH: EVQLVESGGGLVQPGGSLRLSCSASGFTVSSNYMSWVRQAPRKGLEWVSVIYAGGSTFYADSVKGRFTISRDNSKNTLLLQMNSLRAEDTAVYYCARDRGGYLDYWGQGTLVTVSS
# VL: DIQMTQSPSSLSASVGDRVTITCRASQGISNYLAWYQQKPGKVPKLLIYAASTLQSGVPSRFSGSGSGTDFTLTISSLQPEDVATYYCQKYNSAPGLTFGGGTKVEIK
# notes: also called IMM20190; PR194_00190
# B2: PR193_00018 (antibody, V domains shown)
# VH: EVQLVESGGGLVQPGGSLRLSCSASGFTFSSFWMSWVRQAPGKGLEWVATIREDGSEKYYVDSVKGRFSISRDNAKNSLYLQMNSLRAEDTAVYYCARSKWLRGSFDYWGQGTLVTVSS
# VL: NFMLTQPHSVSESPGKTVTISCTRRSGSIASNYVQWYQQRPGSAPTTVIYEDNQRPSGVPDRFSGSIDSSSNSASLTISGLQTEDEADYYCQSYDSSNPPGASWVFGGGTKLTVL
# notes: also called IMM20184; IMM200184
# B3: PR200_00622 (antibody, V domains shown)
# VH: QVQLVESGGGVVQPGRSLRLSCTASGFTFSTYGMHWVRQAPGKGLEWVAVISYDGSSKHYAESVKGRFTISRDNSNNTLYLQMNRLRAEDTAVYYCARDGQPPGWGNYFDYWGQGTLVTVAS
# VL: SYVLTQPPSVSVAPGKTARITCGGNGIGSKSVYWYQQKPGQAPEVVVYDDSDRPSGIPERFSGSNSGNTATLTISRVEAGDEADYYCQVWDSSSDPWVFGGGTKLTVL
# notes: also called IMM20253; PR200_00253
# Biological target: T1, SARS-CoV-2 Spike RBD A352S (SARS-CoV-2, UniProt P0DTC2 319-541)
# T1 construct: domain: RBD
# Test: HTRF, soluble RBD construct
row,Binder,fold over background
1,B1,6.75 fold over background
2,B2,4.62 fold over background
3,B3,5.14 fold over background

# Biological target: T2, SARS-CoV-2 Spike RBD N501Y (SARS-CoV-2, UniProt P0DTC2 319-541)
# T2 construct: domain: RBD
# Test: HTRF, soluble RBD construct
row,Binder,fold over background
1,B1,4.3 fold over background
2,B2,4.92 fold over background
3,B3,5.11 fold over background

# Biological target: T3, SARS-CoV-2 Spike RBD Y453F (SARS-CoV-2, UniProt P0DTC2 319-541)
# T3 construct: domain: RBD
# Test: HTRF, soluble RBD construct
row,Binder,fold over background
1,B1,5.94 fold over background
2,B2,4.74 fold over background
3,B3,4.67 fold over background

# Biological target: T4, SARS-CoV-2 Spike RBD N439K (SARS-CoV-2, UniProt P0DTC2 319-541)
# T4 construct: domain: RBD
# Test: HTRF, soluble RBD construct
row,Binder,fold over background
1,B1,5.95 fold over background
2,B2,4.43 fold over background
3,B3,5.05 fold over background

# Biological target: T5, SARS-CoV-2 Spike RBD E406Q (SARS-CoV-2, UniProt P0DTC2 319-541)
# T5 construct: domain: RBD
# Test: HTRF, soluble RBD construct
row,Binder,fold over background
1,B1,8.81 fold over background
2,B2,6.58 fold over background
3,B3,7.6 fold over background

# Biological target: T6, SARS-CoV-2 Spike RBD A475V (SARS-CoV-2, UniProt P0DTC2 319-541)
# T6 construct: domain: RBD
# Test: HTRF, soluble RBD construct
row,Binder,fold over background
1,B1,7.47 fold over background
2,B2,4.42 fold over background
3,B3,5.22 fold over background

# Biological target: T7, SARS-CoV-2 Spike RBD K417N (SARS-CoV-2, UniProt P0DTC2 319-541)
# T7 construct: domain: RBD
# Test: HTRF, soluble RBD construct
row,Binder,fold over background
1,B1,2.25 fold over background
2,B2,3.64 fold over background
3,B3,4.68 fold over background

# Biological target: T8, SARS-CoV-2 Spike RBD F486S (SARS-CoV-2, UniProt P0DTC2 319-541)
# T8 construct: domain: RBD
# Test: HTRF, soluble RBD construct
row,Binder,EC50
1,B1,0.0334 nM
2,B2,0.0221 nM
3,B3,0.0259 nM

# Biological target: T1, SARS-CoV-2 Spike RBD A352S
# Test: HTRF, soluble RBD construct
# Remark: another data set of the same source
row,Binder,EC50
1,B1,0.0219 nM
2,B2,0.0263 nM
3,B3,0.0317 nM

# Biological target: T9, SARS-CoV-2 Spike RBD L452R (SARS-CoV-2, UniProt P0DTC2 319-541)
# T9 construct: domain: RBD
# Test: HTRF, soluble RBD construct
row,Binder,EC50
1,B1,0.0318 nM
2,B2,0.0436 nM
3,B3,0.034 nM

# Biological target: T2, SARS-CoV-2 Spike RBD N501Y
# Test: HTRF, soluble RBD construct
# Remark: another data set of the same source
row,Binder,EC50
1,B1,0.279 nM
2,B2,0.0398 nM
3,B3,0.0585 nM

# Biological target: T10, SARS-CoV-2 Spike RBD K444R (SARS-CoV-2, UniProt P0DTC2 319-541)
# T10 construct: domain: RBD
# Test: HTRF, soluble RBD construct
row,Binder,EC50
1,B1,0.0258 nM
2,B2,0.0194 nM
3,B3,0.0261 nM

# Biological target: T3, SARS-CoV-2 Spike RBD Y453F
# Test: HTRF, soluble RBD construct
# Remark: another data set of the same source
row,Binder,EC50
1,B1,0.0646 nM
2,B2,0.0494 nM
3,B3,0.0626 nM

# Biological target: T4, SARS-CoV-2 Spike RBD N439K
# Test: HTRF, soluble RBD construct
# Remark: another data set of the same source
row,Binder,EC50
1,B1,0.0689 nM
2,B2,0.051 nM
3,B3,0.0534 nM

# Biological target: T11, SARS-CoV-2 Spike RBD E484Q (SARS-CoV-2, UniProt P0DTC2 319-541)
# T11 construct: domain: RBD
# Test: HTRF, soluble RBD construct
row,Binder,EC50
1,B1,0.0524 nM
2,B2,0.0216 nM
3,B3,0.0238 nM

# Biological target: T5, SARS-CoV-2 Spike RBD E406Q
# Test: HTRF, soluble RBD construct
# Remark: another data set of the same source
row,Binder,EC50
1,B1,0.0677 nM
2,B2,0.0261 nM
3,B3,0.0406 nM

# Biological target: T6, SARS-CoV-2 Spike RBD A475V
# Test: HTRF, soluble RBD construct
# Remark: another data set of the same source
row,Binder,EC50
1,B1,0.0724 nM
2,B2,0.0279 nM
3,B3,0.033 nM

# Biological target: T7, SARS-CoV-2 Spike RBD K417N
# Test: HTRF, soluble RBD construct
# Remark: another data set of the same source
row,Binder,EC50
1,B1,> 0.5 nM
2,B2,0.0437 nM
3,B3,0.0674 nM

# Biological target: T12, SARS-CoV-2 Spike RBD E484K (SARS-CoV-2, UniProt P0DTC2 319-541)
# T12 construct: domain: RBD
# Test: HTRF, soluble RBD construct
row,Binder,EC50
1,B1,0.0334 nM
2,B2,0.0205 nM
3,B3,0.0316 nM

# Biological target: T13, SARS-CoV-2 Spike S1 domain A222S, D614G (SARS-CoV-2, UniProt P0DTC2 16-685)
# T13 construct: domain: S1; also called Spanish (A222S, D614G)
# Test: HTRF, soluble S1 construct
row,Binder,EC50
1,B1,0.0491 nM
2,B2,0.0269 nM
3,B3,0.0449 nM

# Biological target: T14, SARS-CoV-2 Spike S1 domain D614G (SARS-CoV-2, UniProt P0DTC2 16-685)
# T14 construct: domain: S1
# Test: HTRF, soluble S1 construct
row,Binder,EC50
1,B1,0.0627 nM
2,B2,0.0397 nM
3,B3,0.0624 nM

# Biological target: T15, SARS-CoV-2 Spike S1 domain K417N, E484K, N501Y, D614G (SARS-CoV-2, UniProt P0DTC2 16-685)
# T15 construct: domain: S1; also called S. African (K417N, E484K, N501Y, D614G); B.1.351
# Test: HTRF, soluble S1 construct
row,Binder,EC50
1,B1,0.23 nM
2,B2,0.0267 nM
3,B3,0.0248 nM

# Biological target: T16, SARS-CoV-2 Spike S1 domain ΔHV69/70, N501Y, D614G (SARS-CoV-2, UniProt P0DTC2 16-685)
# T16 construct: domain: S1; also called U.K. partial (ΔHV69/70, N501Y D614G)
# Test: HTRF, soluble S1 construct
row,Binder,EC50
1,B1,0.396 nM
2,B2,0.0143 nM
3,B3,0.0216 nM

# Biological target: T17, SARS-CoV-2 Spike S1 domain ΔHV69/70, Y453F, D614G (SARS-CoV-2, UniProt P0DTC2 16-685)
# T17 construct: domain: S1; also called Denmark (ΔHV69/70, Y453F, D614G); DHV69/70, Y453F, D614G
# Test: HTRF, soluble S1 construct
row,Binder,EC50
1,B1,0.0472 nM
2,B2,0.0316 nM
3,B3,0.0664 nM

# Biological target: T18, SARS-CoV-2 Spike S1 domain ΔHV69/70, ΔY144, N501Y, A570D, D614G, P681H (SARS-CoV-2, UniProt P0DTC2 16-685)
# T18 construct: domain: S1; also called U.K. (B.1.1.7); DHV69/70, DY144, N501Y, A570D, D614G, P681H
# Test: HTRF, soluble S1 construct
row,Binder,EC50
1,B1,> 0.5 nM
2,B2,0.0455 nM
3,B3,0.0624 nM

# Biological target: T14, SARS-CoV-2 Spike S1 domain D614G
# Test: HTRF, soluble S1 construct
# Remark: another data set of the same source
row,Binder,fold over background
1,B1,4.84 fold over background
2,B2,4.93 fold over background
3,B3,6.1 fold over background

# Biological target: T15, SARS-CoV-2 Spike S1 domain K417N, …
# Test: HTRF, soluble S1 construct
# Remark: another data set of the same source
row,Binder,fold over background
1,B1,1.12 fold over background
2,B2,4.64 fold over background
3,B3,6.28 fold over background
